Measured values as given in patent US20210105983A1.

Columns and labels:
[1] = target: humanized PD-L1 polypeptide (human portion and endogenous mouse portion) on T cells of mice homozygous for the humanized CD274 gene of Example 1 (human; mouse) (UniProt Q9NZQ7); test: flow cytometry, CD4+ T cells (CD3+CD4+) from spleen of humanized CD274 mouse, isotype control in α-hPD-L1 column
[2] = target: mouse PD-L1 polypeptide on T cells of wild-type mice (mouse) (UniProt Q9EP73); test: flow cytometry, CD4+ T cells from spleen of wild-type mouse, isotype control in α-hPD-L1 column
UniProt Q9EP73, sequence (Q9EP73 19-290): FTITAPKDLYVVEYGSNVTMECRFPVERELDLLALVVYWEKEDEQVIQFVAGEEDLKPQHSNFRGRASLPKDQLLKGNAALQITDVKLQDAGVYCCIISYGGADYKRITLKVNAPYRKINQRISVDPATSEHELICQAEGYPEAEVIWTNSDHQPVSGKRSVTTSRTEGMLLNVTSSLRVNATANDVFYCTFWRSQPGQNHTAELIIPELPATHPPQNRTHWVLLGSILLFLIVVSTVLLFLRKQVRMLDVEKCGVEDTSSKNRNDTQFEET

[3] = target: humanized PD-L1 polypeptide (human portion and endogenous mouse portion) on T cells of mice homozygous for the humanized CD274 gene of Example 1 (human; mouse) (UniProt Q9NZQ7); test: flow cytometry, CD8+ T cells (CD3+CD8+) from spleen of humanized CD274 mouse, isotype control in α-hPD-L1 column
[4] = target: mouse PD-L1 polypeptide on T cells of wild-type mice (mouse) (UniProt Q9EP73); test: flow cytometry, CD8+ T cells from spleen of wild-type mouse, isotype control in α-hPD-L1 column
[5] = target: mouse PD-L1 polypeptide on T cells of wild-type mice (mouse) (UniProt Q9EP73); test: flow cytometry, CD4+ T cells from spleen of wild-type mouse, stimulated with anti-CD3/anti-CD28 for 72 hours
[6] = target: mouse PD-L1 polypeptide on T cells of wild-type mice (mouse) (UniProt Q9EP73); test: flow cytometry, CD8+ T cells from spleen of wild-type mouse, stimulated with anti-CD3/anti-CD28 for 72 hours
[7] = target: mouse PD-L1 polypeptide on T cells of wild-type mice (mouse) (UniProt Q9EP73); test: flow cytometry, CD4+ T cells from spleen of wild-type mouse, unstimulated
[8] = target: humanized PD-L1 polypeptide (human portion and endogenous mouse portion) on T cells of mice homozygous for the humanized CD274 gene of Example 1 (human; mouse) (UniProt Q9NZQ7); test: flow cytometry, CD8+ T cells from spleen of humanized CD274 mouse, unstimulated
[9] = target: humanized PD-L1 polypeptide (human portion and endogenous mouse portion) on T cells of mice homozygous for the humanized CD274 gene of Example 1 (human; mouse) (UniProt Q9NZQ7); test: flow cytometry, CD4+ T cells from spleen of humanized CD274 mouse, stimulated with anti-CD3/anti-CD28 for 72 hours
[10] = target: humanized PD-L1 polypeptide (human portion and endogenous mouse portion) on T cells of mice homozygous for the humanized CD274 gene of Example 1 (human; mouse) (UniProt Q9NZQ7); test: flow cytometry, CD8+ T cells from spleen of humanized CD274 mouse, stimulated with anti-CD3/anti-CD28 for 72 hours
[11] = target: mouse PD-L1 polypeptide on T cells of wild-type mice (mouse) (UniProt Q9EP73); test: flow cytometry, CD8+ T cells from spleen of wild-type mouse, unstimulated
[12] = target: humanized PD-L1 polypeptide (human portion and endogenous mouse portion) on T cells of mice homozygous for the humanized CD274 gene of Example 1 (human; mouse) (UniProt Q9NZQ7); test: flow cytometry, CD4+ T cells from spleen of humanized CD274 mouse, unstimulated
[13] = target: humanized PD-L1 polypeptide (human portion and endogenous mouse portion) on T cells of mice homozygous for the humanized CD274 gene of Example 1 (human; mouse) (UniProt Q9NZQ7); test: flow cytometry, CD4+ T cells (CD3+CD4+) from spleen of humanized CD274 mouse, isotype control in α-mPD-L1 column
[14] = target: mouse PD-L1 polypeptide on T cells of wild-type mice (mouse) (UniProt Q9EP73); test: flow cytometry, CD4+ T cells from spleen of wild-type mouse, isotype control in α-mPD-L1 column
[15] = target: mouse PD-L1 polypeptide on T cells of wild-type mice (mouse) (UniProt Q9EP73); test: flow cytometry, CD8+ T cells from spleen of wild-type mouse, isotype control in α-mPD-L1 column
[16] = target: humanized PD-L1 polypeptide (human portion and endogenous mouse portion) on T cells of mice homozygous for the humanized CD274 gene of Example 1 (human; mouse) (UniProt Q9NZQ7); test: flow cytometry, CD8+ T cells (CD3+CD8+) from spleen of humanized CD274 mouse, isotype control in α-mPD-L1 column

UniProt Q9NZQ7, sequence (Q9NZQ7 other isoform, or with tags, fused parts or gaps limits assumed): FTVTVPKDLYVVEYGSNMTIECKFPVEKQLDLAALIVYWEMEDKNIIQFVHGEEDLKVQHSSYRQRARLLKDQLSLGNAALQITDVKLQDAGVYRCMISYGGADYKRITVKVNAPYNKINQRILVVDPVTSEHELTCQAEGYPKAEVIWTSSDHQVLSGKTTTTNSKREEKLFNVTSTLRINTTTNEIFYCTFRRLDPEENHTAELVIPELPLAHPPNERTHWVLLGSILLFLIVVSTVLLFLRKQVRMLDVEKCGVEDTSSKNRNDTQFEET

With “Isotype control (α-hPD-L1 columns of Table 5) (antibody)” as the substance, how does the Mean Fluorescence Intensity [1] read?
Its Mean Fluorescence Intensity is -55.

What about the Mean Fluorescence Intensity [2] of the same substance?
Its Mean Fluorescence Intensity is -58.

And the Mean Fluorescence Intensity [3]?
The Mean Fluorescence Intensity was 78.

What about the Mean Fluorescence Intensity [4] of the same substance?
The Mean Fluorescence Intensity was 64.

Which Mean Fluorescence Intensity [5] does the source give for “anti-mouse PD-L1 antibody, clone 10F.9G2 (eBioscience)” here?
Its Mean Fluorescence Intensity is 2800.

And the Mean Fluorescence Intensity [6]?
The Mean Fluorescence Intensity was 3170.

What about the Mean Fluorescence Intensity [7] of the same substance?
The Mean Fluorescence Intensity was 538.

What about the Mean Fluorescence Intensity [8] of the same substance?
The Mean Fluorescence Intensity was 160.

And the Mean Fluorescence Intensity [9]?
Its Mean Fluorescence Intensity is 155.

What about the Mean Fluorescence Intensity [10] of the same substance?
The Mean Fluorescence Intensity was 276.

What about the Mean Fluorescence Intensity [11] of the same substance?
Its Mean Fluorescence Intensity is 712.

And the Mean Fluorescence Intensity [12]?
The Mean Fluorescence Intensity was 61.

Which results are given for “anti-human PD-L1 antibody, clone MIH1 (BD Biosciences)”?
Mean Fluorescence Intensity [5]: 22; Mean Fluorescence Intensity [6]: 113; Mean Fluorescence Intensity [7]: -45; Mean Fluorescence Intensity [8]: 271; Mean Fluorescence Intensity [9]: 457; Mean Fluorescence Intensity [10]: 384; Mean Fluorescence Intensity [11]: 62; Mean Fluorescence Intensity [12]: 114

How did the Mean Fluorescence Intensity [13] turn out when “Isotype control (α-mPD-L1 columns of Table 5) (antibody)” was run?
Its Mean Fluorescence Intensity is -52.

And the Mean Fluorescence Intensity [14]?
Its Mean Fluorescence Intensity is -39.

What about the Mean Fluorescence Intensity [15] of the same substance?
The Mean Fluorescence Intensity was 64.

And the Mean Fluorescence Intensity [16]?
The Mean Fluorescence Intensity was 84.
